Experiment: yeast display, Sf9 membrane polyspecificity reagent, FACS + sequencing; frameworks hold sequencing errors
In short: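 Using colony PCR, genes from sorted yeast display clones were amplified, then sequenced on MiSeq at 2 × 250 and filtered by CDR length. The clones had been stained with 10% biotinylated, detergent-solubilized Sf9 membrane reagent for 1 hour at 4 °C and sorted by FACS into low and high (top ~1%) gates on anti-HA and streptavidin fluorescence. Polyreactivity labels come from the gate of origin.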

## QVQIVESGGGLVQAGGSLRLSCPASGRIFYNNAMGWYRPAPGKERELVAAINWSGGSTYYADSVKGRFTISRDNAKNTVYLQMNSLKPEDTAVYYCNADPHGYYGYGYDYWGQGTQVTVSS
  polyreactivity (PSR sort gate): low polyreactivity

## QVQLVESGGGLVQAGGSLRLSCAASGRTFAHNAMGWYRQAPGKERELVAAITWSGGTTYYADSVKGRFTISRDNAKNTVYLQMNSLKPEDTAVYYCNTYSYQPDPKYDYWGQGTQVTVSS
  polyreactivity (PSR sort gate): low polyreactivity

## QVQLVESGGGLVQAGGSLRLSCAASGSTFTGYAMGWYRQAPGNEREFVAAISRRGGSTYYADSVKGRFTISRDNAKNTVYLQMNSLKPEDTAVYYCAARGVGGTVPTRYDYWGQGTQVTVSS
  polyreactivity (PSR sort gate): high polyreactivity

## QVQLVESGGGLVQAGGSLRLSCAASGRIFPGYAMGWYRQAPGKERELVAAISSRGGSTYYADSVKGRFTISRDNAKHTVYLQMNSLKPEDTAVYYCAAEPSWWNVFYPGYNYWGQGTQVTVSS
  polyreactivity (PSR sort gate): high polyreactivity

## QVQLVESAGGLVQAGASLRLSCAASGSIFGGYAMGWYRQAPGTERELVAAISSGDSTYYADSVKGRFTISRDNAKNTVYLQMNSLKPEDTAVYYCARRYTRSYYKLGKLNYWGQGTQVTVSS
  polyreactivity (PSR sort gate): high polyreactivity

## QVQLGESGGGLVQAGGSLRLSCAASGSTFPRNAMGWYRQATGKERELVATITSSGGGTYYADSVKGRFTISRDNAKITVYLQMNSLKPEHTAVYYCNADGPAGDAFDYWGQGTQVTVSS
  polyreactivity (PSR sort gate): low polyreactivity

## QVQLVESGVGLVQAGGSLRLSCAASGSIFYQNAMGWYRQAPGKEREFVAAITWIGGSTYYADSVKGRFTISRDNAKNTVYLQMNSLKPEDTAVYYCARRLLRGSDWGQGTQVTVSS
  polyreactivity (PSR sort gate): high polyreactivity

## QVQLVESGGGLVQAGVSLRLSCAASGRTSAYSAMGWYRQAPGKERQLVAGITRGGRTNYADSVKGRFTISRDNAKNTVYLQMHSLKPEDTAVYYCAAKYGYYWNSRTSGYWGQGTQVTVSS
  polyreactivity (PSR sort gate): high polyreactivity

## QVQLVESGGGLVQAGGILRLSSAASGFTFYLYTMGWYTPAPGKERELVAAISRSGDRTYYADSVKGRFTISRDNAKNTVYLQMNSLKPEDTAVYYCNAYTSYPNTMDYWGQGTQVTVSS
  polyreactivity (PSR sort gate): high polyreactivity

## QVQLVESGGGLVQAGGSLRLSCAASGRTFKYYAMGWYRQAPGKERELVAAISYSGGSTYYADSVKGRFTISRDNAKNTVYLQMNSLKPEDTAVYYCAARFTRYYSGGDQKYDYWGQVTQVTVSS
  polyreactivity (PSR sort gate): high polyreactivity

## QVQLVESRGGLVQAGGSLRLSCAASGSTFPGYAMGCYRQAPGKERELVAAISRSGGSTSYADSVKGRFTISRDKAQNTVYLQLHSLKPEDTEVYYCAAQVQGTSRAKQRGGIGELDYWGQGTQVTVSS
  polyreactivity (PSR sort gate): low polyreactivity

## QVQLVESGEGLVQAGGSLSLSCAASGRIFYAYVMGWYRQAPGKERELVAAIDRRSTYYADSVKRRFTISRDNAKNTVFFQMNSLKPEDTAVYYCAARSTYSYYIRGYWGLGTQVTVSS
  polyreactivity (PSR sort gate): high polyreactivity

## QVQLVESGGGLVQAGGSLRLSCAASGRIFVYNAMGWYRQAPGKERQLVAAIRNDGSTNYADSVKGRFTISRDNAKNTVYLLMNSLKPEDTAVYYCAKSVTGWRGLWYTPRNYYWGQGTQVTVSS
  polyreactivity (PSR sort gate): high polyreactivity

## QVQLVESGGGLVQAGGSLRLSCAASGRIFTKYAMGWYRQAPGKERELVATISKRSGSTYYADSVKGRFTISRDNAKNTVYLQMNSLKPEDTAVYYCARTVGYRTLLESDSWGQGTQVTVSS
  polyreactivity (PSR sort gate): high polyreactivity

## QVQLVESGGGLVQAGGSLRLSCAASGRIFTGNAMGWYRQAPGKERELVAAISRRGTRTYYADSVKGRFTISRDNAKNTVYLQMNSLKPEDTAVYYCATVLYKAYNDYGYWGQGTQVTVSS
  polyreactivity (PSR sort gate): high polyreactivity

## QVQLVESGGGLVQAGGSLRLSCAASGRTFSYYAMGWYRQAPGKERELVAAITSGGGRTYYADSVKGRFTISRDNAKNTVYLQMNSLKPEDTAVYYCNKAYVSRYDYWGQGTQVTVSS
  polyreactivity (PSR sort gate): high polyreactivity

## QVQLVESGGGLVQAGGSLRLSCAASGFTFYIYAMGWYRQAPGKERELVAAITTTTGSTYYADSVKGRFTISRDNAKNTVYLQMNSLKPEDTAVYYCAAEGHYYYFGYYYWGQGTQVTVSS
  polyreactivity (PSR sort gate): low polyreactivity

## QVQLVESGGGLVQAGGSLRLSCAASGRTFTTNAMGWYRQAPGKERELVAGISYSTGRTYYADSVKGRFTISRDNAKNTVYLQMNSLKPEDTAVYYCAAYTRGYRGYYYWGQGTQVTVSS
  polyreactivity (PSR sort gate): high polyreactivity

## QVQLVESGGGLVKAGGSLRLSCAASGFTFPQYAMGWYRQAPGKESELVAAISKRSGGTRYADSVKGRFTISRDNAKNTVYLQMNSLKPEDTAVYYCAAATPSGYYYWGQGTQVTVSS
  polyreactivity (PSR sort gate): high polyreactivity

## QVQLVESGGGLVQAGGSLRLSCAASGRTFWYYTMGWYRQAPGKEWELVAAIRASGGGTYADSVKGLFTISRDNAKNTVYLQMNSLNPEDTAVYYCAVRNVYGWYGSRDYWGQGTQVTVSS
  polyreactivity (PSR sort gate): high polyreactivity

## QVQLVESGGGLVQAGGSLRLSCAASGSTFVGYAMGWYRQAPGKERELVADIDSIGGSTYYADSVKGRFTISRDNAKNTVYLQMNSLKPEDTAVYYCAARRFDTALVLYDYCGQGTQVTVSS
  polyreactivity (PSR sort gate): low polyreactivity

## QVQLVESGGGLVQAGGSLRLSSAASGITFAYYAMGWYRLAPGTVRELVAAISSTGSSTYYADSVKGRFTISRDNAKNTVYLQMNSLKPEDTAVYYCAARVHYRGIVRYDYWGQGTQVTVSS
  polyreactivity (PSR sort gate): high polyreactivity

## QVQLVESGGGLVQAGGSLRLSCAATGSIFNVNAMGWYRQAPGKERELVAAISSGGDTYYADSVKGRFTISRDNAKNTVYIQMNSLQPEDTAVYYCAKQSYTLYTLLYDYWGQGTQVTVSS
  polyreactivity (PSR sort gate): low polyreactivity

## QVQLVESGGGLVQAGGSLRLSCAASGSTFTRNTMGWYRQAPGKERELVAVISRRGGSTYYADSVKGRFTISRDNAKNTVYLQMNSLKPEDTAVYYCNTAAYRLQYEYWGQGTQVTVSS
  polyreactivity (PSR sort gate): high polyreactivity

## QVQLVESGGGLVQAGGSLSLSCAASGSPFLYYTMGWYRQAPGKERELVATISRDGSTNYADSVKGRFTISRDNAKNSVYLQMNSLKPEDTAVYYCAAARDSIGYGQYDYWGQGTQVTVSS
  polyreactivity (PSR sort gate): low polyreactivity

## QVQLVESGGGLVQAGGSLRLSCAASGSTFGVNAMGWYRQAPGKERELVAVITRSGGSTYYADSVKGRFTISRDNAKNTVYLQMNSLKPEDTAVYYCAKSGVVDWGQGTQVTVSS
  polyreactivity (PSR sort gate): low polyreactivity

## QVQLVESGVGLVQAGGSLRLSCAASGRIFRWYPMGWYRQAPGKERELVASITWNGGSTYYADSVKGRFTISRDNAKNTVYLQMKSLKPEDTAVYYCAVPFYRGPEMGYWGQGTQVTVSS
  polyreactivity (PSR sort gate): high polyreactivity

## QVQLVESGGGLVQAGGSLRLSCAASGSIVSVYAMGWSRQAPGKEREWVAAISGRGGRTYYADSVKGRFTISRDNAKNTVYLQMNSLKPVDTAVYYCAARYPRYRYVEYGYNYWGQGTQVTVSS
  polyreactivity (PSR sort gate): high polyreactivity

## QVQLVESGGGLVQAGGSLRLSCAASGFIFHRYAMGWYRQAPGKERELVASITRSGGSTYYADSVKGRFTISRDNAKNTVYLQMISLKPEDTAVYYCAAQLPSYYKYPRHDYWGQGTQVTVSS
  polyreactivity (PSR sort gate): high polyreactivity

## QVQLVESGGGLVQAGGSLRLSCAASGFIFWSYAMGWYRQAPGKERELVAVITSGASTYYADSVKGRFTISRDNAKNTVYLQMNSLKPEDTAVYYSAAEYWVPAWKFGYEYWGQGTQVTVSS
  polyreactivity (PSR sort gate): high polyreactivity

## QVQLVESGGGLVQAGGSLRLICADSGSTFSPNGMGWYTQAHGKERELVAAITSVGSTYYAESVEGRFTISRDNELNTVYFQMNSLQPVDTAVFYCAKGQRDSEEYDYWGQGTQVTVSS
  polyreactivity (PSR sort gate): low polyreactivity

## QVQLVESGGGLVQAGGSHRLSCAASGRTFGYNAMGWYRQAPGKERELVAAISRSGGRTYYADSVKGRFTISRDNAKNTVYLHMNRLKPEDTAVYYCAAESYHRGYDYWGQGTQVTVSS
  polyreactivity (PSR sort gate): high polyreactivity

## QVQLVESGGGLVQAGGSLRLSCAASGFIFTYYAMGWYRQAPGKERELVAAITSGGSTNYADSVKGRFTISRDNAKITVYLQMNSLKPEDTAVYYCASRIYYGRFWYDYWGQGTQVTVSS
  polyreactivity (PSR sort gate): high polyreactivity

## QDQLVESGGGLVQAGGSLRLSSAASGRIFKRYAMGWYIQAPGKERELVAAITYNSGSTYYADSVKGRFTISRDNAKNTVYLQMNSLKPEDTAVFYCAAEKWSDQSPRGDYWGQGTQVTVSS
  polyreactivity (PSR sort gate): low polyreactivity

## QVQLVESGGGLVQAGGSLRLSCAASGSIFPPYAMGWYRQAPGKERELVATITIRGGSTYYADSVKGRFTISRDNAKNTVYLEMNSLKPDDTAVYYCAADYTKYYRSYYYWGQGTQVTVSS
  polyreactivity (PSR sort gate): high polyreactivity

## QVQLVESGGGLVQAGGSLRLSCAASGRIFRWYAMGWYRQAPGKERELVARITSGSSTYYADSVKGRFTISRDNAKNTVYLQMHSLKPEDTAVYYCATRTLQPGYTYPRYYWGQGTQVTVSS
  polyreactivity (PSR sort gate): high polyreactivity

## QVQLVESGGGLVQAGGSLRLSCAASGYTFYFYAMGCYRQAPGKERELVAAITGGGTTSYADSVKGRFTISRDNAKNTVYLQMNSLKPEDTAVYYCNVLFADKSDYWGQGTQVTVSS
  polyreactivity (PSR sort gate): low polyreactivity

## QVQLVESGGGLVQAGGSLRLSCAASGSILTGNAMGWYRQAPGKERELVAGITVGGTSTYYADSVKGRFTISRDNAKNTVYLQMNSLKPEDTAVYYCAAGYRSYWGVYDFDYWGQGTQVTVSS
  polyreactivity (PSR sort gate): low polyreactivity

## QVQLVESGGGLVQAGGSLRLSCAASGSIFQWYAMGWYRQAPGKERELVAAITISGTRTYYADSVKGRFTISRDNAKNTVYLQMNSLKPEDTAVYYCAARYTPRRYYYWGQGTQVTVSS
  polyreactivity (PSR sort gate): high polyreactivity

## QVQLVESGGGLVQAGGSLRLSCAASGSIFKCNSRGWYRQAPVKERELVAAITFSGSSTFYADSVKGRFTISRDTAKNTVYLQMNSLKTEDSALYYCNAVRRQQFGSWGQGTQGTVSS
  polyreactivity (PSR sort gate): high polyreactivity

## QVHLVESGGGLVQAGGSLRLSCAASGRTFPGYAMGWYRQAPGKERELVATITFSDGSTYYADSVKGRFTISLDNAKNTVYLQMNSLKPEDTAVYYCNARRSYFLRYGVNYWGQGTQVTVSS
  polyreactivity (PSR sort gate): low polyreactivity

## QVQLVESGGGLVQAGGSLRLSCAASGITFGRNTMGWYRQAPGKERELVAAIDSGRNTYADSVKGRFTISRDNAKNPVYLQMNSLKPEYTAVYYCNADKSNFVRGYYWGQGTQVTVSS
  polyreactivity (PSR sort gate): low polyreactivity

## QVQLVESGGGLVQAGGSLRVSCAASGITFNEYAMGWYRQAPGKEREFVAAITFSGDSTYADSVKGRFTISRDNAKNTVYLQMNSLKPEDTAVYYCAKRGGRQTYYYWGQGTQVTVSS
  polyreactivity (PSR sort gate): high polyreactivity
